The target of experiment [1] is T1, human ANGPTL3(17-170)-mFc (human).
T1 construct: also called fusion protein of the extracellular region of human ANGPTL3 (17-170) and the mouse IgG2aFc fragment
T1 chain: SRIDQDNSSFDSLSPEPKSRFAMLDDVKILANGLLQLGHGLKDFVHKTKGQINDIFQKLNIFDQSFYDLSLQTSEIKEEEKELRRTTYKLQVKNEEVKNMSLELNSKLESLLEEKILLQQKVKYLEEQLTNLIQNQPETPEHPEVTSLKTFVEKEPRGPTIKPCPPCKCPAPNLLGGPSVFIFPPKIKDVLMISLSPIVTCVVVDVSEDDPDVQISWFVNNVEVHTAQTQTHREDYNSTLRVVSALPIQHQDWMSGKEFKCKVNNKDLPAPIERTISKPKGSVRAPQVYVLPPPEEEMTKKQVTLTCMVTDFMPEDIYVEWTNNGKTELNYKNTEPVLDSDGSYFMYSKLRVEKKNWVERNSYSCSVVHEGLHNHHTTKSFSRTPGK
Kind of experiment: ELISA; human ANGPTL3(17-170)-mFc captured by coated goat anti-mouse IgG. Here is the method:
The binding activity of the anti-ANGPTL3 antibody to the ANGPTL3 antigen was tested by an ELISA assay. The ANGPTL3 protein (human ANGPTL3(17-170)-mFc) was immobilized on a 96-well microplate by binding to the goat anti-mouse IgG coated on the microplate, and the binding activity of the antibody to the ANGPTL3 was determined according to the intensity of the signal after the antibody was added.
Goat anti-mouse IgG (Sigma, M3534-1ML) was diluted to a concentration of 2 μg/mL with PBS buffer (Shanghai BasalMedia, B320, pH 7.4), added to a 96-well microplate (Corning, CLS3590-100EA) at 50 μL/well, and then incubated in an incubator at 37° C. for 3 h or incubated at 4° C. overnight (16-18 h). After the liquid was discarded, a PBS-diluted 5% skim milk (BD, 232100) blocking solution was added at 250 μL/well, and the mixture was incubated in an incubator at 37° C. for 3 h or incubated at 4° C. overnight (16-18 h) for blocking. After the blocking was finished, the blocking solution was discarded and the plate was washed 3 times with PBST buffer (pH 7.4 PBS containing 0.05% Tween-20), and then human ANGPTL3(17-170)-mFc (with sequence set forth in SEQ ID NO: 3) diluted to 0.5 μg/mL with a sample diluent (pH 7.4 PBS containing 1% BSA) was added at 50 μL/well. The mixture was incubated in an incubator at 37° C. for 2 h. After the incubation was finished, the reaction solution in the microplate was discarded. The plate was washed 3 times with PBST, and then a test antibody that was diluted with a sample diluent to different concentrations was added at 50 μL/well. The mixture was incubated in an incubator at 37° C. for 2 h. After the incubation was finished, the plate was washed 3 times with PBST, and a goat anti-human secondary antibody (Jackson Immuno Research, 109-035-003) that was diluted with the sample diluent was added at 50 μL/well. The mixture was incubated at 37° C. for 1 h.
For orientation: ELISA stands for enzyme-linked immunosorbent assay.

The target in experiment [2] is T2, mouse ANGPTL3(17-455)-His (mouse, UniProt Q9R182 17-455, biotin-labelled in the ELISA and HTRF assays (sites not given)).
T2 construct: also called full-length mouse ANGPTL3
T2 sequence: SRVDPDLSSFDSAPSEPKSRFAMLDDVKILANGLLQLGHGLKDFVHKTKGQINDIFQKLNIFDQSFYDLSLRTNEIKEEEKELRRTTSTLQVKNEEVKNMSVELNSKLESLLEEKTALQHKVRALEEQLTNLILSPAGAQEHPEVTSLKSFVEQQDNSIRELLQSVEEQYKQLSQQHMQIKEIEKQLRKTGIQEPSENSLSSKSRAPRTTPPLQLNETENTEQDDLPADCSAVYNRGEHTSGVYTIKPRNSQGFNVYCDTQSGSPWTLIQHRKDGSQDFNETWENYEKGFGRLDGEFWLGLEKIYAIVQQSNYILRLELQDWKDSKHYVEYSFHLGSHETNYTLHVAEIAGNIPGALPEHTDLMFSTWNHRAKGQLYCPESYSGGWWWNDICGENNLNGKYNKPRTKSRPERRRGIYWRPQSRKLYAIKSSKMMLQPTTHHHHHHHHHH
In words: SPR (Biacore T200); antibody captured on Protein A chip, antigen in flow; 1:1 Langmuir fit. From the text: (§1) Biacore was used to determine the affinity of the test anti-ANGPTL3 antibodies for human, monkey, rat and mouse ANGPTL3, and the method is as follows:
(§2) Reaction signals were detected in real time using a Biacore T200 instrument to obtain association and dissociation curves. After each cycle of dissociation was completed, the biochip was washed and regenerated using a glycine-hydrochloric acid regeneration solution (Cat. # BR-1003-54, GE, pH 1.5). The running buffer for the experiment was 1×HBS-EP buffer (Cat. # BR-1001-88, GE). The data obtained from the experiment were fitted with the (1:1) Langmuir model using GE Biacore T200 evaluation software (version 3.0) to obtain affinity values.
In general terms: SPR reads the build-up and loss of mass on a sensor chip optically.

In the next experiment the target is T3, rat ANGPTL3(17-455)-His (rat, biotin-labelled in the ELISA and HTRF assays (sites not given)).
T3 construct: also called full-length rat ANGPTL3
T3 chain: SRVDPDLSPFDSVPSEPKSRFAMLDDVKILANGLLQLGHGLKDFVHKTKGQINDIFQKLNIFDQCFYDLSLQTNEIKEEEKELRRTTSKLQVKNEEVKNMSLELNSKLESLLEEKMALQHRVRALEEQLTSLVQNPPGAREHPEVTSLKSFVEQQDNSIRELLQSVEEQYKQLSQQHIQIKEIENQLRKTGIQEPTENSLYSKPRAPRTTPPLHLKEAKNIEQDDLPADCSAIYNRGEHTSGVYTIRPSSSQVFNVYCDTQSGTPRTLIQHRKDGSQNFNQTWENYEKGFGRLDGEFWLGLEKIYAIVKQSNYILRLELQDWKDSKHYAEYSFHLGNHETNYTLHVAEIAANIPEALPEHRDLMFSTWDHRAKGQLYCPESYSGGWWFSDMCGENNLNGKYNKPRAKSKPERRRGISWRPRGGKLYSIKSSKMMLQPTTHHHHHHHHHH
The experiment is described as above.
Text: as §1, §2

B1: P8G (antibody, human IgG4 S228P, kappa, V domains shown)
VH: QVQLVQSGAEVKKPGASVKVSCKASGYTFTSYDINWVRQAPGQGLEWVGLINPRDDSTSYAQKFQGRVTMTRDTSTSTMYMELSSLRSEDTAVYFCARDLGSIREVLYYGMDVWGQGTTVTVSS
VL: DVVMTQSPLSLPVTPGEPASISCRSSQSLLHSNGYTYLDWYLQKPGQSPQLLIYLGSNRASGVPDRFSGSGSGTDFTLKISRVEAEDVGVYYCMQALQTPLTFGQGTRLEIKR
notes: also called anti-ANGPTL3 antibody P8G; P8 (variable regions)
A word on the EC50: it is the concentration at which the effect is half-maximal. As a reminder, the Kd is a measure of binding affinity in units of concentration. Low values mean tighter binding, high ones weaker binding. Broadly, the koff is the rate constant with which the complex falls apart. Higher therefore signals fast dissociation. The kon is the rate constant with which the complex forms. Consider B1, for which the response in experiment [1] was half-maximal at 361 pM (EC50). Further, in experiment [2], the Kd worked out at 355 pM, the koff worked out at 0.000345 s⁻¹ and the kon was 970000 M⁻¹ s⁻¹. In the experiment with rat ANGPTL3(17-455)-His, this molecule came in with a Kd of 250 pM, a koff of 0.000335 s⁻¹ and a kon of 1.34e+06 M⁻¹ s⁻¹.

B2: P8BG (antibody, human IgG4 S228P, kappa, V domains shown)
VH: QVQLVQSGAEVKKPGASVKVSCKASGYTFTSYDINWVRQAPGQGLEWVGLINPREDSTSYAQKFQGRVTMTRDTSTSTMYMELSSLRSEDTAVYFCARDLGSIREVLYYGMDVWGQGTTVTVSS
VL: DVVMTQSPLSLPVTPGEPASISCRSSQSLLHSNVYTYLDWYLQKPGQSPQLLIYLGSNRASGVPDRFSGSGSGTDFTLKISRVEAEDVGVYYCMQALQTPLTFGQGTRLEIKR
notes: also called anti-ANGPTL3 antibody P8BG; P8B (variable regions)
Take B2: in experiment [1], it took 172 pM to reach a half-maximal effect (EC50). In experiment [2], this molecule came in with a Kd of 288 pM, a koff of 0.00042 s⁻¹ and a kon of 1.46e+06 M⁻¹ s⁻¹. In the experiment with rat ANGPTL3(17-455)-His, this molecule returned an equilibrium dissociation constant (Kd) of 257 pM, a koff of 0.000311 s⁻¹ and a kon of 1.21e+06 M⁻¹ s⁻¹.

B3: P3G (antibody, human IgG4 S228P, kappa, V domains shown)
VH: QVQLVQSGAEVKKPGASVKVSCKSSGYTFTDYYLHWLRQAPGQGPEWMGWISPNSGGTSYAQKFQGRVTMTRDTSISTAYMELSSLRSDDTAVYYCARDIATLGNFFTYGMDVWGQGTTVTVSS
VL: DIQLTQSPSSLSASVGDRVTITCRASQGIRNDLGWYQQKPGKAPKLLIYAASSLQSGVPSRFSGSGSGTDFTLTISSLQPEDFATYYCQQSYSSWTFGQGTKVEIKR
notes: also called anti-ANGPTL3 antibody P3G; P3 (variable regions)
For the molecule B3, in experiment [1], the half-maximal effective concentration (EC50) amounted to 2480 pM. In experiment [2], this molecule had a Kd of 843 pM, an off-rate constant (koff) of 0.000827 s⁻¹ and an on-rate constant (kon) of 981000 M⁻¹ s⁻¹. In the experiment with rat ANGPTL3(17-455)-His, the Kd is 639 pM, the koff was determined as 0.00082 s⁻¹ and the kon stood at 1.28e+06 M⁻¹ s⁻¹.

(Values after US20230138315A1 (JIANGSU HENGRUI MEDICINE, published 2023).)
